Test results published in PMC4737184, “The activity of CouR, a MarR family transcriptional regulator, is modulated through a novel molecular mechanism” (Nucleic Acids Research, 2015).
Substitutions are numbered along the chain they refer to.

Key:
CouR [1] = target: T1, CouR (Rhodococcus jostii, UniProt Q0S6D0); assay: ([…] Å) and ITC; EMSA in support; format: binding
T1 construct: gene RHA1_ro05125; full-length, homodimer; crystal model residues 4–146
T1 sequence (Q0S6D0 1-146): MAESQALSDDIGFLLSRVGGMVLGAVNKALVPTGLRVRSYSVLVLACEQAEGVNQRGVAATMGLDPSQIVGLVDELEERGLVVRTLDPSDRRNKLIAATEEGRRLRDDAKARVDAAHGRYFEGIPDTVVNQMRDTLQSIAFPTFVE

CouR [2] = target: T2, CouR (Rhodococcus jostii, UniProt Q0S6D0, R38A); assay: ITC; format: binding
T2 construct: gene RHA1_ro05125; full-length

CouR [3] = target: T3, CouR (Rhodococcus jostii, UniProt Q0S6D0, R36A); assay: ITC; format: binding
T3 construct: gene RHA1_ro05125; full-length

CouR [4] = target: T4, CouR (Rhodococcus jostii, UniProt Q0S6D0, R36A/R38A); assay: ITC; format: binding
T4 construct: gene RHA1_ro05125; full-length

CouR [5] = target: T5, CouR (Rhodococcus jostii RHA1, UniProt Q0S6D0 1-146); assay: competition; 1 uM unlabelled vs 1 nM DIG-couRp_couNp, 200 nM CouR; EMSA: 20 mM HEPES pH 7.6, 10 mM (NH4)2SO4, 30 mM KCl, 1 mM DTT, 1 mM EDTA, 0.2% Tween 20, 100 ug/ml poly[d(I-C)], 1 nM probe, 25 C, 20 min; conditions: protein: recombinant; tags: His-tag removed by Factor Xa; extra N-terminal His residue remains; chain copies: 2; blunt
T5 sequence: T1 sequence (Q0S6D0 1-146)

CouR [6] = target: T5, CouR; assay: EMSA; 25-200 nM CouR; EMSA: 20 mM HEPES pH 7.6, 10 mM (NH4)2SO4, 30 mM KCl, 1 mM DTT, 1 mM EDTA, 0.2% Tween 20, 100 ug/ml poly[d(I-C)], 1 nM probe, 25 C, 20 min; conditions: protein: recombinant; tags: His-tag removed by Factor Xa; extra N-terminal His residue remains; chain copies: 2; label: 3' DIG-11-ddUTP (probe); blunt
CouR R38A = target: T6, CouR R38A (Rhodococcus jostii RHA1, UniProt Q0S6D0 1-146, R38A); assay: EMSA; 50 or 200 nM protein; EMSA: 20 mM HEPES pH 7.6, 10 mM (NH4)2SO4, 30 mM KCl, 1 mM DTT, 1 mM EDTA, 0.2% Tween 20, 100 ug/ml poly[d(I-C)], 1 nM probe, 25 C, 20 min; conditions: protein: recombinant; tags: His-tag removed by Factor Xa; extra N-terminal His residue remains; chain copies: 2; label: 3' DIG-11-ddUTP (probe); blunt
T6 sequence: T1 sequence (Q0S6D0 1-146) with R38A

CouR R36A = target: T7, CouR R36A (Rhodococcus jostii RHA1, UniProt Q0S6D0 1-146, R36A); assay: as above; conditions: protein: recombinant; tags: His-tag removed by Factor Xa; extra N-terminal His residue remains; chain copies: 2; label: 3' DIG-11-ddUTP (probe); blunt
T7 sequence: T1 sequence (Q0S6D0 1-146) with R36A

CouR R36A/R38A = target: T8, CouR R36A/R38A (Rhodococcus jostii RHA1, UniProt Q0S6D0 1-146, R36A;R38A); assay: as above; conditions: protein: recombinant; tags: His-tag removed by Factor Xa; extra N-terminal His residue remains; chain copies: 2; label: 3' DIG-11-ddUTP (probe); blunt
T8 sequence: T1 sequence (Q0S6D0 1-146) with R36A, R38A

## CC(C)(COP(=O)(O)OP(=O)(O)OC[C@H]1O[C@@H](n2cnc3c(N)ncnc32)[C@H](O)[C@@H]1OP(=O)(O)O)[C@@H](O)C(=O)NCCC(=O)NCCSC(=O)/C=C/c1ccc(O)cc1 [p-coumaroyl–CoA]
CouR [1]
  Kd: 11 µM
CouR [2]
  Kd: 25 µM
CouR [3]
  Kd: 28 µM
CouR [4]
  Kd: 89 µM

B1: couTp (dsDNA)
DNA 1: CATTAATCATTGAACTTGTCAATGGAAGAGA
DNA 2: TCTCTTCCATTGACAAGTTCAATGATTAATG
CouR [5]
  binding result: binds

B2: couRp_couNp_m (dsDNA)
DNA 1: CATTGATGTAACTGAATGAGTTAGATTAAGG
DNA 2: CCTTAATCTAACTCATTCAGTTACATCAATG
CouR [6]
  binding result: no binding

B3: couHp (dsDNA)
DNA 1: TATCAATCATTGATAATGTCAATGATTGACT
DNA 2: AGTCAATCATTGACATTATCAATGATTGATA
CouR [5]
  binding result: binds

B4: couRp_couNp (dsDNA)
DNA 1: CATTGATGATTGAGAATGTCAATGATTAAGG
DNA 2: CCTTAATCATTGACATTCTCAATCATCAATG
CouR [6]
  binding result: binds
CouR R38A
  binding result: no binding
CouR R36A
  binding result: no binding
CouR R36A/R38A
  binding result: no binding
